Results as given in PMC4565669, “Insulin and mTOR Pathway Regulate HDAC3-Mediated Deacetylation and Activation of PGK1” (PLoS Biology, 2015).
One block for each molecule: values may come before it.

How the values were obtained:
PGK1 [1] = target: PGK1 (UniProt P00558); assay: co-IP of HA-HDAC3, PGK1 blot; details: reference: wild type HA-HDAC3; sites S424
PGK1 [2] = target: PGK1 (UniProt P00558); assay: co-IP with HA beads, Flag blot; details: reference: wild type HDAC3, insulin-treated; sites S424
GST-HDAC3 (recombinant) = target: T1, GST-HDAC3 (recombinant) (UniProt O15379-1 1-428); assay: pull-down; in vitro pull-down with recombinant GST-HDAC3 (30 ug) and His-PGK1 (10 ug) purified from E. coli; details in S1 Text; details: both partners purified
T1 construct: source: E. coli, purified
T1 sequence (O15379 whole entry): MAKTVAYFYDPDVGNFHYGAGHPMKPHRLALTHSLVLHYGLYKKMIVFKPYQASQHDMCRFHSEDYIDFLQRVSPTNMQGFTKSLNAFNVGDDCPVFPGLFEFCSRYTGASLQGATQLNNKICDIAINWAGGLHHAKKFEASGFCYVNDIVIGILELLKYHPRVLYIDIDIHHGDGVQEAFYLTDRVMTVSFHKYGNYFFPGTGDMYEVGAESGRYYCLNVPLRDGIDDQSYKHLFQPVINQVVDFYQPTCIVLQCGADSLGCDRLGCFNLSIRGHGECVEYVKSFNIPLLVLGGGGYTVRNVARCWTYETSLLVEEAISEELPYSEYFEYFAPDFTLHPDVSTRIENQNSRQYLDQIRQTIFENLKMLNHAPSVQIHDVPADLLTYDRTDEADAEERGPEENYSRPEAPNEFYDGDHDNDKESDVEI

binding against the reference (PGK1 [1]): weaker
Molecule: HDAC3 (from UniProt O15379) S424A

binding against the reference (PGK1 [2]): weaker
Molecule: HDAC3 (from UniProt O15379) S424A, insulin-treated

binding result (GST-HDAC3 (recombinant)): binds
B1: His-PGK1 (recombinant) (enzyme, human, UniProt P00558 1-417, looked up)
chain: MSLSNKLTLDKLDVKGKRVVMRVDFNVPMKNNQITNNQRIKAAVPSIKFCLDNGAKSVVLMSHLGRPDGVPMPDKYSLEPVAVELKSLLGKDVLFLKDCVGPEVEKACANPAAGSVILLENLRFHVEEEGKGKDASGNKVKAEPAKIEAFRASLSKLGDVYVNDAFGTAHRAHSSMVGVNLPQKAGGFLMKKELNYFAKALESPERPFLAILGGAKVADKIQLINNMLDKVNEMIIGGGMAFTFLKVLNNMEIGTSLFDEEGAKIVKDLMSKAEKNGVKITLPVDFVTADKFDENAKTGQATVASGIPAGWMGLDCGPESSKKYAEAVTRAKQIVWNGPVGVFEWEAFARGTKALMDEVVKATSRGCITIIGGGDTATCCAKWNTEDKVSHVSTGGGASLELLEGKVLPGVDALSNI
notes: Phosphoglycerate kinase 1 (PGK1), human, Gene ID 5230; unacetylated recombinant protein; also called His-tagged PGK1; source: E. coli, purified
